Laboratory results taken from publication PMC6620040, “Structure of the DNA-Bound Spacer Capture Complex of a Type II CRISPR-Cas System” (Molecular Cell, 2019).

B1: Cas1 protein of the CRISPR3-Cas system from S. thermophilus DGCC7710, bearing a StrepII tag (natural protein, Streptococcus thermophilus DGCC7710)
chain: MAGWRTVVVNIHSKLSYKNNHLIFRNSYKTEMIHLSEIDILLLETTDIVLTTMLVKRLVDENILVIFCDDKRLPTAFLTPYYARHDSSLQIARQIAWKENVKCEVWTAIIAQKILNQSYYLGECSFFEKSQSIMELYHGLERFDPSNREGHSARIYFNTLFGNDFTRESDNDINAALDYGYTLLLSMFAREVVVCGCMTQIGLKHANQFNQFNLASDIMEPFRPIIDRIVYQNRHNNFVKIKKELFSIFSETYLYNGKEMYLSNIVSDYTKKVIKALNQLGEEIPEFRI
notes: Cas1 of the type II-A CRISPR3-Cas system, Streptococcus thermophilus DGCC7710; cloned into pETDUET-1 (pCas1Strep); Forms dimers with two conformations (Cas1A, Cas1B) in the structures; also called StCas1; Strep-tagged Cas1; source: E. coli BL21 (DE3), co-expressed with the rest of the CRISPR3-Cas locus, in lysate; purified as a complex (Strep-Trap HP, Superdex S200) for cryo-EM; not shown: …

Key:
[1] = biological target: the molecule itself; experiment: cryo-EM structure; Strep-Trap- and SEC-purified Cas9-Cas1-Cas2-Csn2 sample after DNase I treatment and gel filtration (25 mM Tris pH 7.5, 150 mM NaCl, 1 mM TCEP), graphene oxide coated grids; monomer Cas1_(8)-Cas2_(4)-Csn2_(8) at 3.2 Å (D2), dimer Cas1_(24)-Cas2_(12)-Csn2_(16) at 7.2 Å (D2), filament unit at 7.7 Å (D2); duplex DNA in the central channel
[2] = biological target: B1; experiment: pull-down; StrepII-tagged Cas1 co-expressed in E. coli with the CRISPR3-Cas locus (all four proteins; also the variants lacking Cas9, the CRISPR array or tracrRNA); StrepTrap column, then size-exclusion chromatography (Superdex S200), SDS-PAGE; 10 mM Tris-HCl pH 7.5, 300 mM KCl, 1 mM EDTA, 1 mM DTT; conditions: partners not purified

Row | binding result [2] | Binder | stoichiometry N [1]
1 |  | Csn2 protein of the CRISPR3-Cas system from S. thermophilus DGCC7710 (natural protein, Streptococcus thermophilus DGCC7710, Csn2 of the type II-A CRISPR3-Cas system, Streptococcus thermophilus DGCC7710; expressed from the CRISPR3 locus plasmid; Tetramer (dimer of dimers, conformations Csn2A and Csn2B) in the structures; one Ca2+ per chain modelled; also called StCsn2; Csn2A; source: E. coli BL21 (DE3), expressed from the CRISPR3 locus plasmid (pCas1- and derivatives), in lysate; purified as a complex (Strep-Trap HP, …)) MKINFSLLDEPMEVNLGTVLVIEDVSVFAQLVKEFYQYDEQSNLTIFDSKIRSIRSSELLLITDILGYDINTSQVLKLLHTDIVSQLNDKPEVRSEIDSLVSLITDIIMAECIENELDIEYDEITLLELIKALGVRIETKSCTVFEKIFEILQIFKYLVKKRILVFVNSLSYFSKDEIYQILEYTKLSQADVLFLEPRQIEGIQQFILDKDYILMPYNN | 4
2 | binds | Cas2 protein of the CRISPR3-Cas system from S. thermophilus DGCC7710 (natural protein, Streptococcus thermophilus DGCC7710, Cas2 of the type II-A CRISPR3-Cas system, Streptococcus thermophilus DGCC7710; expressed from the CRISPR3 locus plasmid; source: E. coli BL21 (DE3), expressed from the CRISPR3 locus plasmid (pCas1- and derivatives), in lysate; purified as a complex (Strep-Trap HP, Superdex S200) for cryo-EM) MSYRYMRMILMFDMPTDTAEERKAYRKFRKFLLSEGFIMHQFSVYSKLLLNHTANTAMVGRLKANNPKKGNITILTVTEKQFARMIYLYGDKNTSIANSEERLVFLGDNYCDED | 2
3 |  | B1 | 2
